From US20100222269A1 (Novo Nordisk, published 2010)
Starred links: 1 amine or outer side, 2 acyl side, 3 side chain; linkers in the order of their positions; H or OH if unused. Positions of bridges follow the written chain, without caps; N, C: chain ends. Groups on a side chain read outwards from the residue. No end group written: not given here. *: point of attachment. C20 diacid = O=C(O)CCCCCCCCCCCCCCCCCCC(=O)*; C18 diacid = O=C(O)CCCCCCCCCCCCCCCCC(=O)*; 17‑carboxyheptanoyl = not defined here; γGlu = O=C(O)[C@H](CCC(=O)[*:2])N[*:1]; AEEA = NCCOCCOCC(=O)O

B1: N-alpha-(17-carboxyheptanoyl)-Glu-[Glu1]-pramlintide (1-37) (peptide)
peptide: {17‑carboxyheptanoyl}-EECNTATCATQRLANFLVHSSNNFGPILPPTNVGSNTY-NH2
modifications: disulfide 3-8 (inferred); reading uncertain; also: printed as N-alpha-(17-carboxyheptanoyl)-Glu-[Glu1]-pramlintide (1-37)
B2: N-alpha-[(S)-4-carboxy-4-(17-carboxyheptadecanoylamino)butyryl]-[Arg18,Leu23,Val26]-pramlintide (2-37) (peptide)
peptide: CNTATCATQRLANFLVRSSNNLGPVLPPTNVGSNTY
modifications: N-alpha-[(S)-4-carboxy-4-(17-carboxyheptadecanoylamino)butyryl] on the N-terminal Cys2; disulfide bridge between the two Cys; C-terminal amide
B3: N-alpha-(2-{2-[2-(2-{2-[2-((S)-4-Carboxy-4-{4-carboxy-4-[4-carboxy-4-(17-carboxyheptadecanoylamino)butyrylamino]butyrylamino}butyrylamino) … (peptide)
peptide: B2 peptide
modifications: N-alpha-(2-{2-[2-(2-{2-[2-((S)-4-Carboxy-4-{4-carboxy-4-[4-carboxy-4-(17-carboxyheptadecanoylamino)butyrylamino]butyrylamino}butyrylamino) ethoxy}ethoxy]acetylamino)ethoxy}ethoxy]acetyl) on the N-terminal Cys2; disulfide bridge between the two Cys; C-terminal amide
B4: N-alpha-(17-carboxyheptanoyl)-[Arg18]-pramlintide (1-37) (peptide)
peptide: {17‑carboxyheptanoyl}-KCNTATCATQRLANFLVRSSNNFGPILPPTNVGSNTY-NH2
modifications: disulfide 2-7 (inferred); reading uncertain; also: printed as N-alpha-(17-carboxyheptanoyl)-[Arg18]-pramlintide (1-37)
B5: N-alpha-(17-carboxyheptanoyl)-[Arg18,Leu23,Val26]-pramlintide (2-37) (peptide)
peptide: {17‑carboxyheptanoyl}-CNTATCATQRLANFLVRSSNNLGPVLPPTNVGSNTY-NH2
modifications: disulfide 1-6 (inferred); reading uncertain; also: printed as N-alpha-(17-carboxyheptanoyl)-[Arg18,Leu23,Val26]-pramlintide (2-37)

molecular target: Amylin 3(a) receptor (human calcitonin receptor (CTa) with RAMP-3) on BHK570 cells (human, UniProt P30988 25-474); assay: cell-based or functional assay
Sequence (P30988 25-474): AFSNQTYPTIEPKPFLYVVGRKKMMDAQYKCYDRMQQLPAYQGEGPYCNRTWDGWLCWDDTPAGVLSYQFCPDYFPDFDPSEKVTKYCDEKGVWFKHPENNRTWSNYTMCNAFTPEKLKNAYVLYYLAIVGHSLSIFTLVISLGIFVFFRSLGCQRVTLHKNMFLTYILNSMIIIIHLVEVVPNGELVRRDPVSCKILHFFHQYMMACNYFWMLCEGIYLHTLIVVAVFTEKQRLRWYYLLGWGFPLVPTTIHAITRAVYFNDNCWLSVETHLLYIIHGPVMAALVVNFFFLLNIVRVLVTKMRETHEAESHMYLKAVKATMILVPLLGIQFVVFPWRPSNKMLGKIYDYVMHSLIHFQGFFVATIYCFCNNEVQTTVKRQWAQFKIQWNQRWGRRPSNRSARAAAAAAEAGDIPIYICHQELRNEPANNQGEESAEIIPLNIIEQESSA

**Q.** With B1 as the binder, how does the Potency luciferase assay read?
**A.** The Potency luciferase assay was 0.4 nM.

**Q.** Which Potency luciferase assay does the source give for KCK([AEEA-AEEA-γGlu-C20 diacid])TATCATQRLANFLVHSSNNFGPILPPTNVGSNTY-NH2 (disulfide 2-7 (inferred)) here?
**A.** Its Potency luciferase assay is 0.3 nM.

**Q.** With KCK(C20 diacid)TATCATQRLANFLVHSSNNFGPILPPTNVGSNTY-NH2 (disulfide 2-7 (inferred)) [N-epsilon3-(19-carboxynonadecanoyl)-[Lys3]-pramlintide (1-37)] as the binder, how does the Potency luciferase assay read?
**A.** Its Potency luciferase assay is 0.05 nM.

**Q.** For B2, which Potency luciferase assay is on record?
**A.** The Potency luciferase assay was 0.03 nM.

**Q.** How did the Potency luciferase assay turn out when B3 was run?
**A.** Its Potency luciferase assay is 0.9 nM.

**Q.** KCK([γGlu-C18 diacid])TATCATQRLANFLVPSSNNFGPILPPTNVGSNTY-NH2 (disulfide 2-7 (inferred)) [N-epsilon3-[(S)-4-carboxy-4-(17-carboxyheptadecanoylamino)butyryl]-[Lys3,Pro18]-pramlintide (1-37)] was tested. Which Potency luciferase assay did it give?
**A.** Its Potency luciferase assay is 0.7 nM.

**Q.** For KCK([AEEA-AEEA-γGlu-C18 diacid])TATCATQRLANFLVPSSNNFGPILPPTNVGSNTY-NH2 (disulfide 2-7 (inferred)), which Potency luciferase assay is on record?
**A.** The Potency luciferase assay was 10 nM.

**Q.** KCK([AEEA-AEEA-γGlu-γGlu-γGlu-C18 diacid])TATCATQRLANFLVPSSNNFGPILPPTNVGSNTY-NH2 (disulfide 2-7 (inferred)) was tested. Which Potency luciferase assay did it give?
**A.** Its Potency luciferase assay is 20 nM.

**Q.** For B4, which Potency luciferase assay is on record?
**A.** Its Potency luciferase assay is 0.03 nM.

**Q.** For KCK(C18 diacid)TATCATQRLANFLVHSSNNFGPILPPTNVGSNTY-NH2 (disulfide 2-7 (inferred)) [N-epsilon3-(17-carboxyheptadecanoyl)-[Lys3]-pramlintide (1-37)], which Potency luciferase assay is on record?
**A.** The Potency luciferase assay was 0.05 nM.

**Q.** For KCK(17‑carboxyheptanoyl)TATCATQRLANFLVRSSNNFGPILPPTNVGSNTY-NH2 (disulfide 2-7 (inferred)) [N-epsilon3-(17-carboxyheptanoyl)-[Lys3,Arg18]-pramlintide (1-37)], which Potency luciferase assay is on record?
**A.** The Potency luciferase assay was 0.06 nM.

**Q.** How did the Potency luciferase assay turn out when K([γGlu-C18 diacid])CGTATCATQRLANFLARSSNNFGPILSPTNVGSNTY-NH2 (disulfide 2-7 (inferred)) was run?
**A.** The Potency luciferase assay was 0.07 nM.

**Q.** For B5, which Potency luciferase assay is on record?
**A.** The Potency luciferase assay was 0.1 nM.

**Q.** With {C20 diacid}-EERECNTATCATQRLANFLVHSSNNFGPILPPTNVGSNTY-NH2 (disulfide 5-10 (inferred)) [N-alpha-(19-carboxynonadecanoyl)-Glu-Glu-Arg-[Glu1]-pramlintide (1-37)] as the binder, how does the Potency luciferase assay read?
**A.** The Potency luciferase assay was 0.08 nM.

**Q.** For KCNTATCATQRLANFLVHSSNNFGK([AEEA-AEEA-γGlu-γGlu-γGlu-γGlu-C18 diacid])ILPPTNVGSNTY-NH2 (disulfide 2-7 (inferred)), which Potency luciferase assay is on record?
**A.** Its Potency luciferase assay is 0.3 nM.
